Experimental data published in patent US20140072980A1 (Regeneron, published 2014).

Assays:
[1] = molecular target: IgG1 Fc/Fc* bispecific antibody; test: flow cytometry sandwich: antibody displayed on CHO cells by CSCP FcγR, detected with labeled Ab2; signal needs both capture and detection
[2] = molecular target: IgG1 Fc/Fc monospecific antibody; test: as above
[3] = molecular target: IgG4 Fc/Fc* bispecific antibody; test: as above
[4] = molecular target: IgG4 Fc*/Fc* monospecific antibody; test: as above
[5] = molecular target: IgG4 Fc/Fc monospecific antibody; test: as above
[6] = molecular target: IgG1 Fc/Fc* bispecific antibody; test: flow cytometry sandwich: antibody displayed on CHO cells by CSCP ScFv*-FcγR, hFc block, detected with Alexa 488-labeled Ab2; signal needs both capture and detection
Method: (§1) Conversely, the Ab6-derived anti-Fc*-specific ScFv*-FcγR surface capture system was tested for its ability to detect and enrich for cells that produce bispecific antibodies. […] The Ab6-derived anti-Fc*-specific ScFv*-FcγR surface capture cell line was able to detect and distinguish the bispecific antibody (Fc/Fc*) over the Fc*/Fc* or Fc/Fc monospecific antibodies using the Fc-specific Ab2 as the detection molecule (Table 4). The FcγR surface capture cell line was not able to distinguish between the Fc/Fc*, Fc*/Fc*, and Fc/Fc IgG4 species.

[7] = molecular target: IgG1 Fc*/Fc* monospecific antibody; test: as above
Method: as §1

[8] = molecular target: IgG1 Fc/Fc monospecific antibody; test: as above
Method: as §1

human Fc homodimer = molecular target: T1, human Fc homodimer (human, UniProt P01861 120-325 = IgG part); test: SPR (Biacore 2000), antibody captured on anti-mouse-Fc surface, Fc dimer injected
T1 construct: His 95 and Tyr 96 (IMGT) in CH3; also called Fc/Fc; hFc
Method: (§2) Measurements to determine binding affinities and kinetic constants were made on a Biacore 2000 instrument. Antibodies (each of Ab1-Ab8) were captured onto an anti-mouse-Fc sensor surface (Mab capture format), and human Fc (SEQ ID NO 26) homodimers, human Fc* homodimers (SEQ ID NO:42), or Fc/Fc* heterodimers were injected over the surface. Kinetic association (kₐ) and dissociation (kd) rate constants were determined by processing and fitting the data to a 1:1 binding model using Scrubber 2.0 curve fitting software.

human Fc* homodimer = molecular target: T2, human Fc* homodimer (human); test: SPR (Biacore 2000), antibody captured on anti-mouse-Fc surface, Fc dimer injected, 1:1 fit
T2 construct: also called Fc*/Fc*; human ΔAdpFc polypeptide
Method: as §2

[9] = molecular target: IgG1 Fc/Fc* bispecific antibody; test: flow cytometry sandwich: antibody displayed on CHO cells by CSCP FcγR, detected with FITC-labeled Ab6; signal needs both capture and detection
[10] = molecular target: IgG1 Fc*/Fc* monospecific antibody; test: as above
[11] = molecular target: IgG1 Fc/Fc monospecific antibody; test: as above
[12] = molecular target: IgG1 Fc/Fc* bispecific antibody; test: flow cytometry sandwich: antibody displayed on CHO cells by CSCP ScFv-FcγR, hFc block, detected with FITC-labeled Ab6; signal needs both capture and detection
Method: (§3) The Ab2-derived anti-Fc-specific ScFv-FcγR surface capture system was tested for its ability to detect and enrich for cells that produce bispecific antibodies. To assess the ability to detect bispecific antibodies, which harbor the 95R/435R-96F/436F substitution in one of the CH3 domains (designated Fc*), various antibodies were expressed in the Ab2-derived anti-Fc-specific ScFv-FcγR surface capture cell line, using hFc as the blocking molecule, and a FITC-labeled Ab6 anti-Fc* antibody (e.g., mAb with HC of SEQ ID NO:40, and LC of SEQ ID NO:41) as the detection molecule. The Ab2-derived anti-Fc-specific ScFv-FcγR surface capture cell line was able to detect and distinguish the bispecific antibody (Fc/Fc*) over any Fc*/Fc* or Fc/Fc monospecific antibodies using the Fc*-specific Ab6 as the detection molecule (Table 4). The wildtype FcγR surface capture cell line was not able to distinguish between the Fc/Fc*, Fc*/Fc*, and Fc/Fc IgG4 species, since FcγR is unable to bind, or binds at very low affinity to IgG4.

[13] = molecular target: IgG1 Fc*/Fc* monospecific antibody; test: as above
Method: as §3

[14] = molecular target: IgG1 Fc/Fc monospecific antibody; test: as above
Method: as §3

[15] = molecular target: IgG4 Fc/Fc* bispecific antibody; test: as above
Method: as §3

[16] = molecular target: IgG4 Fc*/Fc* monospecific antibody; test: as above
Method: as §3

[17] = molecular target: IgG4 Fc/Fc monospecific antibody; test: as above
Method: as §3

T1 sequence (P01861 other isoform, or with tags, fused parts or gaps limits assumed): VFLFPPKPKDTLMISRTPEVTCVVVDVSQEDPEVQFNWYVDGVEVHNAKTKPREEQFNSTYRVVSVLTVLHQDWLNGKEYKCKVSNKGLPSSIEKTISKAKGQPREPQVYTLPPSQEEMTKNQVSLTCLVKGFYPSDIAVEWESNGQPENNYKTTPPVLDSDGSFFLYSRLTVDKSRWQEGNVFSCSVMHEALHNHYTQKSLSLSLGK

B1: Ab2 (antibody, V domains shown)
VH: QLQQSGAELAKPGASVKMSCKASGYTFTNYWIHWEKQRPEQGLEWIGYINPNTGHTEYNQKFKDKATLTADRSSSTAYMQLSSLTSEDSAVYFCARTYSGSSHFDYWGQGTTL
VL: DIVMTQTPVSLPVSLGDQASISCRSSQSLVHNNGDTFLHWYLQKPGQSPKLLIYKVSNRFSGVPDRFSGSGSGTDFTLKISRVEAEDLGVYFCSQTTLIPRTFGGGTKLEI
notes: From Velocimmune mice, captured by anti-mouse-Fc in SPR; also called Fc-specific Ab2; Ab2 anti-Fc antibody
Mean Fluorescence Intensity (MFI) [1]: 500 MFI
Mean Fluorescence Intensity (MFI) [2]: 350 MFI
Mean Fluorescence Intensity (MFI) [3]: 200 MFI
Mean Fluorescence Intensity (MFI) [4]: 200 MFI
Mean Fluorescence Intensity (MFI) [5]: 200 MFI
Mean Fluorescence Intensity (MFI) [6]: 150 MFI
Mean Fluorescence Intensity (MFI) [7]: 10 MFI
Mean Fluorescence Intensity (MFI) [8]: 10 MFI

B2: Ab6 (antibody, mouse IgG2a, kappa, V domains shown)
VH: EVQLVESGGAIVKPGGSHRVSCEASGFTFSNAWMSWVRQAPGRGLEWVGRILSKTDGGTTDYAAPVKDRFTISRDDSKNMLFLQMDSLKIEDTAVYFCTTADFWSAYSSDYWGQGTLVTVSS
VL: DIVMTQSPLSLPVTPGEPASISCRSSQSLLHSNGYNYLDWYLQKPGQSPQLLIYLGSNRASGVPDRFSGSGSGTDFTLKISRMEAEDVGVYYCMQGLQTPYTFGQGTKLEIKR
notes: also called Fc*-specific Ab6; Ab6 anti-Fc* antibody
binding result (human Fc homodimer): no binding
Kd (human Fc* homodimer): 0.679 nM
koff (human Fc* homodimer): 0.000593 s⁻¹
kon (human Fc* homodimer): 873000 M⁻¹ s⁻¹
t½ (human Fc* homodimer): 19 min
Mean Fluorescence Intensity (MFI) [9]: 200 MFI
Mean Fluorescence Intensity (MFI) [10]: 200 MFI
Mean Fluorescence Intensity (MFI) [11]: 200 MFI
Mean Fluorescence Intensity (MFI) [12]: 500 MFI
Mean Fluorescence Intensity (MFI) [13]: 15 MFI
Mean Fluorescence Intensity (MFI) [14]: 15 MFI
Mean Fluorescence Intensity (MFI) [15]: 500 MFI
Mean Fluorescence Intensity (MFI) [16]: 15 MFI
Mean Fluorescence Intensity (MFI) [17]: 15 MFI
